± gives the standard deviation.

The nature of this data set: protein stability index of a GFP-peptide fusion (GPS, HEK-293T) (PSI 1-6); higher = more stable.
The mark [1] stands for this setting: treatment: DMSO, c terminus: a fixed tail appended.
[2] abbreviates: treatment: MLN4924 1 uM, 8 h, c terminus: a fixed tail appended.
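Note: 24-mer peptide tiles fused after GFP, lentivirally expressed, FACS-sorted into six equal bins by GFP/DsRed ratio, decoded by Illumina sequencing, PSI is the read-weighted mean bin number.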

Consider PGRDRVGREDEDGWETRGDRKARK [HES6], for which the protein stability index was found to be 5.49 ± 0.26 under setting [1] and 5.48 ± 0.17 under setting [2].

Consider PGTPPSYSSRTPGTPGTPSYPRTP [MAP2], for which the protein stability index runs as follows: under setting [1], 4.72 ± 0.39; under setting [2], 4.55 ± 0.34.

For PGVQAPEDLEWERYRGRGSEEYRA [CHGB], the protein stability index worked out at 4.8 ± 0.17 under setting [1] and 5.18 ± 0.63 under setting [2].

As to PHYICTLKQPHLLLEKYSYYLISG [PNLIPRP1], the protein stability index amounted to 2.78 ± 0.81 under setting [1] and 2.74 ± 0.69 under setting [2].

Consider PIFQDSQDTEVFSWSDNERSSSRI [FAM104B], for which the protein stability index by setting is: under setting [1], 4.34 ± 0.55; under setting [2], 4.41 ± 0.26.

Turning to PIYGLRQSILLNTRLQDCYVDSPA [C22orf31], the protein stability index turned out to be 2.69 ± 0.2 under setting [1] and 2.55 ± 0.38 under setting [2].

Sequence PKQSGSFRYLQGMLEAGEGGDWPG [PDLIM4] had a protein stability index under setting [1] of 3.79 ± 0.34 and a protein stability index under setting [2] of 3.96 ± 0.15.

PKTPMDGADCGIQWWNAVFIMLLI [LYSMD4] had a protein stability index under setting [1] of 2.5 ± 0.62 and a protein stability index under setting [2] of 2.39 ± 0.41.

For the sequence PLAVEEDASSSTSTSSSFPSSFPS [MAGEA10], the protein stability index by setting is: under setting [1], 5.31 ± 0.23; under setting [2], 5.41 ± 0.12.

The sequence PLGVDESLFSYGLRESIASYLSLT [SLA] showed a protein stability index under setting [1] of 2.03 ± 0.19 and a protein stability index under setting [2] of 2.3 ± 0.13.

As to PLHHQTQRFRLDNLLNMAYGVKSP [ELAVL3], the protein stability index reads like this: under setting [1], 2.5 ± 0.34; under setting [2], 2.63 ± 0.27.

The sequence PLKAQNDLDISRIKRGNTTLESTD [P2RY14] yielded a protein stability index under setting [1] of 5 ± 0.11 and a protein stability index under setting [2] of 5.24 ± 0.24.

As for PLMPGMPPVMPGMPPGLHHQRKYT [ZNF207], the protein stability index is, setting by setting: under setting [1], 3.91 ± 0.39; under setting [2], 4.11 ± 0.18.

In the case of PLPPPPPAFKSMEVANFYYEADCL [CEBPB], the protein stability index reads like this: under setting [1], 3.9 ± 0.31; under setting [2], 3.62 ± 0.33.

For PLTGDKDDEEVDTHFASQEFFSAN [ADAMTSL2], the protein stability index under setting [1] is 5.37 ± 0.11 and the protein stability index under setting [2] came to 5.45 ± 0.19.

For PMPLAPTRSHLWEAAQVVPDGLGL [TRIB3], the protein stability index turned out to be 3.48 ± 0.32 under setting [1] and 3.34 ± 0.23 under setting [2].

As for PPHVLISRPSAPFTEASMMMSLTK [ESR2], the protein stability index is, setting by setting: under setting [1], 3.48 ± 0.084; under setting [2], 3.44 ± 0.18.

Consider PPTYPTKYFGCELGAQTQFDVKND [EIF5], for which the protein stability index runs as follows: under setting [1], 4.35 ± 0.17; under setting [2], 4.494 ± 0.038.

As to PQEAVLQQLHQLPRGRLDLATQSL [LRRC45], the protein stability index amounted to 3.75 ± 0.15 under setting [1] and 3.74 ± 0.21 under setting [2].

Regarding PQRPRSAPRTSSCAERLQSEEQVS [FCHO1], the protein stability index by setting is: under setting [1], 4.85 ± 0.39; under setting [2], 4.9 ± 0.24.

In the case of PRELASMSLVLHGNNLLVFGGTGI [KLHDC10], the protein stability index is 2.46 ± 0.71 under setting [1] and 2.45 ± 0.59 under setting [2].

As for PRGSHSSALERLETKLHLLRQEMV [LURAP1L], the protein stability index by setting is: under setting [1], 2.53 ± 0.33; under setting [2], 2.69 ± 0.27.

On to PRLVSETAERKQEQKTGTEAEAAD [MFSD9], for which the protein stability index runs as follows: under setting [1], 5.77 ± 0.12; under setting [2], 5.61 ± 0.25.

In the case of PRVRELLLDALSPEQLVLTLLEAE [ESR2], the protein stability index is 2.22 ± 0.22 under setting [1] and 2.22 ± 0.26 under setting [2].

Consider PSGFLQISDALIRRVHLTEDQWGK [TRIM9], for which the protein stability index is, setting by setting: under setting [1], 2.84 ± 0.25; under setting [2], 2.59 ± 0.24.

For the sequence PSLGDSLESIPSLSQSPEPGRRGD [RTN2], the protein stability index under setting [1] stood at 5.32 ± 0.45 and the protein stability index under setting [2] is 5.48 ± 0.12.

On to PSTTPPAHSSSNTIRSGISPNLNV [SASS6], for which the protein stability index turned out to be 4.29 ± 0.33 under setting [1] and 4.44 ± 0.28 under setting [2].

On to PSVEQAADSLDFDETFLATSFLQH [FOXJ1], for which the protein stability index came out at 4.43 ± 0.18 under setting [1] and 4.41 ± 0.4 under setting [2].

In the case of PSVPPTIKEEENSEEELAAATTSK [MYBL2], the protein stability index was determined as 5.52 ± 0.53 under setting [1] and 5.56 ± 0.4 under setting [2].

Regarding PTKDRLEGLLAFKEKRPPRYKGE [AUH], the protein stability index is, setting by setting: (treatment: DMSO, c terminus: native) 2.11 ± 0.31; (treatment: MLN4924 1 uM, 8 h, c terminus: native) 4.4 ± 0.1.

On to PTMPQPIEKVSVSTQTKKLSASSP [ZMYND11], for which the protein stability index runs as follows: under setting [1], 5.28 ± 0.18; under setting [2], 5.24 ± 0.25.

PTPANEERRGGLPPLPLHPGGDQG [WAS]: the protein stability index came out at 5.38 ± 0.22 under setting [1] and 5.39 ± 0.065 under setting [2].

For PTQGPETPRSPEGTTEAATQDGKE [PXN], the protein stability index is, setting by setting: under setting [1], 5.62 ± 0.19; under setting [2], 5.48 ± 0.22.

In the case of PVLEDNYMYLVIEELTREAVAVDV [HAGHL], the protein stability index is, setting by setting: under setting [1], 2.34 ± 0.57; under setting [2], 2.47 ± 0.17.

Take PVQGSSEDNLSLVCLPRSEDDDCD [DRICH1]: the protein stability index runs as follows: under setting [1], 5.62 ± 0.2; under setting [2], 5.53 ± 0.21.

As to PWARGCGMFTFLSSVTAAVSGLLV [SLC2A12], the protein stability index under setting [1] turned out to be 2.54 ± 0.3 and the protein stability index under setting [2] came to 2.57 ± 0.21.

With PWTKEEDQKVIELVKKYGTKQWTL [MYBL2], the protein stability index reads like this: under setting [1], 2.61 ± 0.24; under setting [2], 2.72 ± 0.16.

As for QACSLPASCCIDPREDGASVNDQC [TSPAN10], the protein stability index is, setting by setting: under setting [1], 5.06 ± 0.27; under setting [2], 5.11 ± 0.25.

QAGPEATTSDPQDLDMKKHRCKCC [PALM] registered a protein stability index under setting [1] of 5.06 ± 0.3 and a protein stability index under setting [2] of 5.17 ± 0.11.

With QAQPAIPRPNRLFLRQLRASHLGN [C2CD2L], the protein stability index is, setting by setting: under setting [1], 3.09 ± 0.33; under setting [2], 3.08 ± 0.27.

Take QASKLRASKEEKEDWLSHALSRKK [FBF1]: the protein stability index by setting is: under setting [1], 4.5 ± 0.24; under setting [2], 4.54 ± 0.26.

Turning to QDFPVKKRKKLSTWKQELLKLMDR [ZNF75A], the protein stability index by setting is: under setting [1], 2.5 ± 0.11; under setting [2], 2.53 ± 0.17.

The sequence QDIERGVQSEIFLHESYCMDTSHQ [LYSMD4] registered a protein stability index under setting [1] of 4.24 ± 0.15 and a protein stability index under setting [2] of 4.25 ± 0.14.

As to QDLLDVIRIKLDPCHPTVKNWRNF [EDARADD], the protein stability index under setting [1] is 2.27 ± 0.75 and the protein stability index under setting [2] came to 2.35 ± 0.34.

Take QEKKLSFIEALIQQYQEQLDKSTK [TRIM63]: the protein stability index is 2.82 ± 0.19 under setting [1] and 3.11 ± 0.5 under setting [2].

As for QFNVSGPGLLEEDNQWMTQINRLQ [NECAB1], the protein stability index runs as follows: under setting [1], 3.02 ± 0.13; under setting [2], 3.31 ± 0.19.

Regarding QGIFVEKYDPTIEDSYRKQVEVDA [RAP1B], the protein stability index is 4.72 ± 0.11 under setting [1] and 4.44 ± 0.12 under setting [2].

Take QGIGSKIIKKVAEVALDKGCSQFR [SAT2]: the protein stability index is, setting by setting: under setting [1], 2.44 ± 0.68; under setting [2], 2.27 ± 0.36.

Regarding QGLIRAGKVEAQHILASAPTDRNL [PYCR3], the protein stability index was 3.96 ± 0.16 under setting [1] and 4.07 ± 0.4 under setting [2].

As to QGSPAVDKERFTTLVQDLANAFQQ [CHIT1], the protein stability index was determined as 3.13 ± 0.25 under setting [1] and 3.48 ± 0.22 under setting [2].

QHAVQELTKAATSGVGIDGEVLSY [RHOBTB1] returned a protein stability index under setting [1] of 4.5 ± 0.25 and a protein stability index under setting [2] of 4.57 ± 0.14.

In the case of QILDSLSYMRNENVISELNIEDYF [FBXO39], the protein stability index turned out to be 2.32 ± 0.29 under setting [1] and 2.2 ± 0.12 under setting [2].

In turn, QILKDTKSITSAMNELQHDLDVVS [TPH1] had a protein stability index under setting [1] of 3.82 ± 0.24 and a protein stability index under setting [2] of 3.97 ± 0.092.

In the case of QIPTQNTQARQVMEREFNNLLALG [PPFIA4], the protein stability index is 3.56 ± 0.12 under setting [1] and 3.37 ± 0.21 under setting [2].

On to QKHYVYGPLPQSFDKEWVAKQTKR [COX4I1], for which the protein stability index turned out to be 3.55 ± 0.41 under setting [1] and 3.7 ± 0.28 under setting [2].

QKNGGGAYLVPYLVLLIIIGIPLF [SLC6A17]: the protein stability index by setting is: under setting [1], 2.37 ± 0.061; under setting [2], 2.83 ± 1.5.

Regarding QKRLKSKLLDHDNVKYLKKILDEL [GDAP1], the protein stability index reads like this: under setting [1], 2.1 ± 0.24; under setting [2], 2.19 ± 0.22.

In the case of QLCEKAPKEATVMCEQCDVFYCDP [TRIM9], the protein stability index is 4.33 ± 0.081 under setting [1] and 4.33 ± 0.25 under setting [2].

Turning to QLHHVVYCFMIAYGTQRTLILESQ [FUT8], the protein stability index came out at 3.12 ± 0.55 under setting [1] and 3.17 ± 0.36 under setting [2].

Regarding QLNRRGEFIQEIRRQLEACQRERA [OAS1], the protein stability index reads like this: under setting [1], 4.09 ± 0.19; under setting [2], 3.79 ± 0.075.

In the case of QLQAARNEYLLNLVATNAHLDHYY [FCHSD1], the protein stability index is, setting by setting: under setting [1], 2.58 ± 0.44; under setting [2], 2.55 ± 0.73.

Consider QLQSMPSRELASMNLDIVDLLKKA [RHOBTB3], for which the protein stability index runs as follows: under setting [1], 3.46 ± 0.35; under setting [2], 3.79 ± 0.47.

As to QMMPYMQPVMQSDRTAIRSDTTHL [KLHL13], the protein stability index is, setting by setting: under setting [1], 3.5 ± 0.24; under setting [2], 3.5 ± 0.23.

Consider QNPKDCSKAKKLVCNINKGCGYGC [FUT8], for which the protein stability index was 3.53 ± 0.1 under setting [1] and 3.48 ± 0.17 under setting [2].

In the case of QPLEASNPALEGLTQPLQGGTPHC [DNAAF3], the protein stability index was 5.11 ± 0.15 under setting [1] and 5.09 ± 0.35 under setting [2].

Sequence QPPPQSSEGLVGALMHVMQKRSRA [WAS] yielded a protein stability index under setting [1] of 4.21 ± 0.41 and a protein stability index under setting [2] of 4.24 ± 0.12.

Regarding QQQHIECVVCGDKSSGKHYGQFTC [NR2F2], the protein stability index reads like this: under setting [1], 3.06 ± 0.24; under setting [2], 3.12 ± 0.48.

Take QREEHELVHVMERSLSPSLSSVDM [RAD54B]: the protein stability index came out at 4.62 ± 0.31 under setting [1] and 4.76 ± 0.11 under setting [2].

In turn, QRGRVISLWERLEFVNGWYILLVT [MCOLN1] yielded a protein stability index under setting [1] of 2.79 ± 0.68 and a protein stability index under setting [2] of 2.67 ± 0.65.

Consider QSGFEMLKDVKSTLEKCEKVKTME [TRIM39], for which the protein stability index is, setting by setting: under setting [1], 5.11 ± 0.2; under setting [2], 4.86 ± 0.2.

For QSGLVWTNCWLIRELNLPFGGMKS [ALDH8A1], the protein stability index was 2.6 ± 0.48 under setting [1] and 2.61 ± 0.68 under setting [2].

As for QTAVQFQQYAAQQYPGNYEQQQIL [ACBD3], the protein stability index runs as follows: under setting [1], 3.71 ± 0.22; under setting [2], 3.61 ± 0.23.
